Target: GST-LEA12^OR (Oryza rufipogon Griff.)
Assay: MST
Conditions: scale: fold

Kd relative to that of LEA12^93-11: 0.143
B1: MBP-OsSAPK10 (natural protein)
chain: MDRAALTVGPGMDMPIMHDGDRYELVRDIGSGNFGVARLMRSRADGQLVAVKYIERGDKIDENVQREIINHRSLRHPNIIRFKEVILTPTHLAIVMEYASGGELFERICNAGRFSEDEARFFFQQLISGVSYCHSMQVCHRDLKLENTLLDGSTAPRLKICDFGYSKSSVLHSQPKSTVGTPAYIAPEVLLKKEYDGKIADVWSCGVTLYVMLVGAYPFEDPDEPKNFRKTIQRILGVQYSIPDYVHISPECRDLIARIFVANPATRISIPEIRNHPWFLKNLPADLMDDSKMSSQYEEPEQPMQSMDEIMQILAEATIPAAGSGGINQFLNDGLDLDDDMEDLDSDPDLDVESSGEIVYAM

From PMC11501004
